Data taken from paper PMC3285272 (Cell, 2012).

Tests used:
Test in all cases: pull-down
[1] = biological target: T1, γζ-COP lacking the C-terminal appendage domain of γ-COP (γ-COP 1–617) (B. taurus, UniProt P53620 1-617; P35604 1-177)
T1 sequence (looked up) 1: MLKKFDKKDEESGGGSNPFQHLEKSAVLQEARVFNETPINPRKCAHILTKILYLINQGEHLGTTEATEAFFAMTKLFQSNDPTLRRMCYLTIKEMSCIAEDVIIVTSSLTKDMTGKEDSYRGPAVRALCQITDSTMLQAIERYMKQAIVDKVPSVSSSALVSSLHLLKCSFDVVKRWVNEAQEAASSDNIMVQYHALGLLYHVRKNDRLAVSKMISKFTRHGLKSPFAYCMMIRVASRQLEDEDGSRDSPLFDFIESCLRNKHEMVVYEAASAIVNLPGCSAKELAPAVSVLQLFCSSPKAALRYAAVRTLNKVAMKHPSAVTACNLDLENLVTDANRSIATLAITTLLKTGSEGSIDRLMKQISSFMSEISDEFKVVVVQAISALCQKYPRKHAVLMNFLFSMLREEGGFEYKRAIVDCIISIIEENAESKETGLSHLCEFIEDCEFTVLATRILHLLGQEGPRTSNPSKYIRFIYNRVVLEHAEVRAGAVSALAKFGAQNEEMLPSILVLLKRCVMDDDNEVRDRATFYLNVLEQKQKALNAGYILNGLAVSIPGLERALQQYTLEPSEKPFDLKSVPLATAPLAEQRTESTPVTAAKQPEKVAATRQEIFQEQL
T1 sequence (looked up) 2: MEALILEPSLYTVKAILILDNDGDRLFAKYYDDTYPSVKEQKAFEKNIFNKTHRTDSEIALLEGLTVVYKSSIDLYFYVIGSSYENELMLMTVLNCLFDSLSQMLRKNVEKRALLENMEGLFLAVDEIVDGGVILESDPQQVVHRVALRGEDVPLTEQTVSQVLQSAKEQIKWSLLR

[2] = biological target: T2, full-length γζ-COP dimer (B. taurus, UniProt P53620 1-874; P35604 1-177)
T2 sequence (looked up) 1: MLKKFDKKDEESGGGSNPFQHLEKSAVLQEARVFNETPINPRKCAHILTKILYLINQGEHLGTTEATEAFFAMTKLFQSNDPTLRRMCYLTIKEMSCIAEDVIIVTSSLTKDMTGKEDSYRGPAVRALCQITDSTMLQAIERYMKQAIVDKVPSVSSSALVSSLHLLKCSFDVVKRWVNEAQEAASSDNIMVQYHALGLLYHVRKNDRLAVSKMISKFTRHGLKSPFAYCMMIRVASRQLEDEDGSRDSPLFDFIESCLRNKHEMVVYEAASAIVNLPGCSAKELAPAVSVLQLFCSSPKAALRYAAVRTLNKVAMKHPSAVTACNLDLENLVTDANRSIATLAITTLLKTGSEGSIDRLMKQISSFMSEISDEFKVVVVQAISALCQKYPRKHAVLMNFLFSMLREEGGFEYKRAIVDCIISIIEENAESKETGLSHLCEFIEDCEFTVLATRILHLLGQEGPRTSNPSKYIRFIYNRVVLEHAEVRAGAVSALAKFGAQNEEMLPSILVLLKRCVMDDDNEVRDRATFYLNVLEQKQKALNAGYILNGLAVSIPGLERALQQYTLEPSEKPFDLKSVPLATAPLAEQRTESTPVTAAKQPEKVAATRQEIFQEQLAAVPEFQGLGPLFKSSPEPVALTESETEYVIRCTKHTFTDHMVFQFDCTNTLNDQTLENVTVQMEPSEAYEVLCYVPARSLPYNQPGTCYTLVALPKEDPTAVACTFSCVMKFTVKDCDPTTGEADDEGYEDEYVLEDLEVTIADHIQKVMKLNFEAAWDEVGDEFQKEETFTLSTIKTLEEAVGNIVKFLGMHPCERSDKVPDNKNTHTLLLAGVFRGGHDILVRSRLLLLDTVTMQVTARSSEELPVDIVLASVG
T2 sequence (looked up) 2: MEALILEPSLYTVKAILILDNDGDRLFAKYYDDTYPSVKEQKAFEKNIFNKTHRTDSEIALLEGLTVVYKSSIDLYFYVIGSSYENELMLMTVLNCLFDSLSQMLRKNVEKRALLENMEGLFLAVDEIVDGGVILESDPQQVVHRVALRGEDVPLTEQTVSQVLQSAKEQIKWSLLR

[3] = biological target: T3, γζ-COP core complex (bovine γ-COP 1–355 plus ζ-COP 1–153) (B. taurus, UniProt P53620 1-355; P35604 1-153)
T3 sequence (looked up) 1: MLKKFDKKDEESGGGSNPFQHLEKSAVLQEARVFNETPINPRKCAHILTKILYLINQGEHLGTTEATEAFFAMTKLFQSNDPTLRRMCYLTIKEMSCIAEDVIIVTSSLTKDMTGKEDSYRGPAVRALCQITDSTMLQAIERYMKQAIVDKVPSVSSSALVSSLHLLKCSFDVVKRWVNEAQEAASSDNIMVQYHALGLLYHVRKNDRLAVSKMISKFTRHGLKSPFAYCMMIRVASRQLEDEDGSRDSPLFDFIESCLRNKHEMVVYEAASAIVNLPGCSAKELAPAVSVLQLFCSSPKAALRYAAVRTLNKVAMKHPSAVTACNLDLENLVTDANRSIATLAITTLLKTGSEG
T3 sequence (looked up) 2: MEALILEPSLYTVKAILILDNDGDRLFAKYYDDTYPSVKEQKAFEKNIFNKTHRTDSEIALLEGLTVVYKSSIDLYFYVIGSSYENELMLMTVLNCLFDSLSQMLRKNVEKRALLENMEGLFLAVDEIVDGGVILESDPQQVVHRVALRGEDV

Measured: binding result

B1: S. cerevisiae Arf1 (residues 18–181) with a C-terminal GST tag (domain or fragment, UniProt P11076 18-181, looked up)
chain: MRILMVGLDGAGKTTVLYKLKLGEVITTIPTIGFNVETVQYKNISFTVWDVGGQDRIRSLWRHYYRNTEGVIFVVDSNDRSRIGEAREVMQRMLNEDELRNAAWLVFANKQDLPEAMSAAEITEKLGLHSIRNRPWFIQATCATSGEGLYEGLEWLSNSLKNST
binds: [1] | [2] | [3]
